Experimental data reported in patent publication US20230056252A1 (Gilead, published 2023).

Experiments:
[1] = target: T1, MabSelect SuRe (engineered Protein A); assay: 500 ml Expi293 expression, MabSelect SuRe capture and cation exchange; purified homodimer yield; parental reference
T1 construct: also called MabSelect SuRe column
Experimental: 500 ml of Expi293 cells were transfected with 0.5 mg DNA encoding selected huSP34 scFv-Fc Protein A knockout variants according to manufacturer's protocol. Four days post transfection, the cell-free clarified supernatant was collected and loaded to a MabSelect™ SuRe™ (Cytiva Life Sciences) column. Afterwards the column was washed with a low salt buffer of 25 mM Tris HCl pH 7.5, 25 mM NaCl for 10 column volumes (CV), then high salt wash of 25 mM Tris HCl pH 7.5, 500 mM NaCl for 5CV to remove non-specific binding, and finally washed with a low salt wash of 25 mM Tris HCl pH 7.5, 25 mM NaCl for 10CV. To elute the antibody, an isocratic elution step of 100 mM sodium acetate pH 3.7 was performed. The eluted pool was neutralized to pH 6.0 with 1 M Tris HCl pH 9.0, and subjected to a cation ion purification, HiTrap SP HP (Cytiva Life Sciences) to further remove impurities. The cation captured protein was washed with 10 mM sodium phosphate pH 7.0 for 10CV, then eluted in 0-30% gradient of 10 mM sodium phosphate pH 7.0, 1M NaCl for 50CV to separate the desired two targeting arm antibody (heterodimer) from the one targeted arm antibody (homodimer). […] Concentration of the formulated protein was measured by A280. Purity was assessed as percent monodispersed by analytical size-exclusion chromatography. Identity of the bispecific antibody was determined by Mass Spec (MS).

[2] = target: T2, CD3 expressed on cell-surface of primary human T cells (human, UniProt P07766 23-207; P04234 22-171); assay: flow cytometry on PBMCs, % anti-huIgG+ CD4+ cells, donor hu 711
T2 construct: also called cell-surface CD3; human CD3
T2 sequence (P07766 23-207 limits assumed, chain 1 of 2): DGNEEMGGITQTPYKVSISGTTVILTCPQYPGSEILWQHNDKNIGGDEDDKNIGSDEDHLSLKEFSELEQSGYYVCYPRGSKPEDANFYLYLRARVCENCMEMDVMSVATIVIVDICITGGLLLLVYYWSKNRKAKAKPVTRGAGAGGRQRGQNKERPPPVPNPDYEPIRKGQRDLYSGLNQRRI
T2 sequence (P04234 22-171 limits assumed, chain 2 of 2): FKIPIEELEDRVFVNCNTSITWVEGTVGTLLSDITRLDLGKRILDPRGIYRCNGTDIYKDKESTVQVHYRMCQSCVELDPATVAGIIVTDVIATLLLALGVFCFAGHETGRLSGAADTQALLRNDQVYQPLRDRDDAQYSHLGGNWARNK
Experimental: (§1) Briefly, PBMCs from healthy human donors and healthy rhesus or cynomolgus monkey donors were incubated with different concentrations of HIV×CD3 bispecific molecules for 1 hour at RT. […] Cells were then washed, fixed/permeabilized, and analyzed on BD LSRFortessa. The percentage of α-huIgG-APC-positive CD4+ and CD8+ T cells and the mFI of the α-huIgG-APC of CD4+ and CD8+ cells were collected, and data analyzed using GraphPad Prism.

[3] = target: T2, CD3 expressed on cell-surface of …; assay: flow cytometry on PBMCs, % anti-huIgG+ CD4+ cells, donor hu 921
Experimental: as §1

[4] = target: T2, CD3 expressed on cell-surface of …; assay: flow cytometry on PBMCs, % anti-huIgG+ CD8+ cells, donor hu 711
Experimental: as §1

[5] = target: T2, CD3 expressed on cell-surface of …; assay: flow cytometry on PBMCs, % anti-huIgG+ CD8+ cells, donor hu 921
Experimental: as §1

[6] = target: T3, CD3 on cynomolgus monkey T cells in PBMCs (cynomolgus monkey, UniProt Q95LI5 22-198); assay: flow cytometry on PBMCs, % anti-huIgG+ CD4+ cells, donor cy 2177
T3 construct: whole, on cells; also called cynomolgus CD4+ and CD8+ T cells
T3 sequence (Q95LI5 22-198): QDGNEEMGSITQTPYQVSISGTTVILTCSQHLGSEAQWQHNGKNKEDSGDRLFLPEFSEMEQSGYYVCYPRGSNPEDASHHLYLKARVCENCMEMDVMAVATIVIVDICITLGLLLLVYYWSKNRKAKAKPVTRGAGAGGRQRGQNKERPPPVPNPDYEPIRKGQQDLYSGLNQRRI
Experimental: as §1

[7] = target: T3, CD3 on cynomolgus monkey T cells in …; assay: flow cytometry on PBMCs, % anti-huIgG+ CD8+ cells, donor cy 2177
Experimental: as §1

B1: huSP34.13.8 scFv AAS + SAV + R (Fc fusion)
chain: EVQLVESGGGLVQPGGSLRLSCAASGFTFSTYAMNWVRQAPGKGLEWVGRIRSKYNNYATYYAASVKGRFTISRDDSKNTLYLQMNSLRTEDTAVYYCVRHGNFGHSYVSWFAYWGQGTLVTVSSGGGGSGGGGSGGGGSGGGGSQAVVTQEPSLTVSPGGTVTLTCGSSTGAVTTGHYANWVQQKPGQAPRGLIGGTNKRAPGVPARFSGSLLGGKAALTISGAQPEDEAEYYCALWYSNRWVFGGGTKLTVLEPKSSDKTHTCPPCPAPEAAGGPSVFLFPPKPKDTLMISRTPEVTCVVVDVSHEDPEVKFNWYVDGVEVHNAKTKPREEQYNSTYRVVSVLTVLHQDWLNGKEYKCKVSNKALPASIEKTISKAKGQPREPQVYTLPPSREEMTKNQVSLSCAVKGFYPSDIAVEWESNGQPENNYKTTPPVLDSDGSFFLVSKLTVDKSRWQQGNVFSCSVMHEALHNRYTQKSLSLSPGK
notes: also called huSP34.13.8scFv-Fc; parent
scFv-Fc Homodimer Yield Relative to WT (e.g. Protein A binding) [1]: 100%

B2: hCD4 D1.22 Fc AAS + W + YTE/huSP34.39.13 AAS + SAV + R (bispecific antibody, human IgG1, lambda, L234A L235A)
chain: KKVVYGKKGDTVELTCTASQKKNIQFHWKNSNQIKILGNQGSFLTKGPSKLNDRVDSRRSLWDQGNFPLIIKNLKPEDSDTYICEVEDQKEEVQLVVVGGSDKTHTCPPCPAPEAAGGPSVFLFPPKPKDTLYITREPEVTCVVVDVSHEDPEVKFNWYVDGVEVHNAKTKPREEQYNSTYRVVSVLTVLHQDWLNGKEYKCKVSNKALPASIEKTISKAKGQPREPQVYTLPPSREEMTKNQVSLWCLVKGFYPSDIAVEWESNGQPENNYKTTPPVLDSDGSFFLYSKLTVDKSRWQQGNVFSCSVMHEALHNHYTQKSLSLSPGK
heavy: EVQLVESGGGLVQPGGSLRLSCAASGFTFNTYAMNWVRQAPGKGLEWVGRIRSKYNNYATYYADSVKSRFTISRDDSKNSLYLEMNSLRTEDTAVYYCVRHGNFGHSYVSWFAYWGQGTLVTVSSASTKGPSVFPLAPSSKSTSGGTAALGCLVKDYFPEPVTVSWNSGALTSGVHTFPAVLQSSGLYSLSSVVTVPSSSLGTQTYICNVNHKPSNTKVDKKVEPKSCDKTHTCPPCPAPEAAGGPSVFLFPPKPKDTLMISRTPEVTCVVVDVSHEDPEVKFNWYVDGVEVHNAKTKPREEQYNSTYRVVSVLTVLHQDWLNGKEYKCKVSNKALPASIEKTISKAKGQPREPQVYTLPPSREEMTKNQVSLSCAVKGFYPSDIAVEWESNGQPENNYKTTPPVLDSDGSFFLVSKLTVDKSRWQQGNVFSCSVMHEALHNRYTQKSLSLSPGK
light: QAVVTQEPSLTVSPGGTVTLTCGSSTGAVTTGHYANWVQQKPGQAPRGLIGGTSNRAPGVPARFSGSLLGGKAALTISGAQPEDEAEYYCALWYSNRWVFGGGTKLTVLGQPKAAPSVTLFPPSSEELQANKATLVCLISDFYPGAVTVAWKADSSPVKAGVETTTPSKQSNNKYAASSYLSLTPEQWKSHRSYSCQVTHEGSTVEKTVAPTECS
notes: also called 180; CD4 x huSP34 bispecific 180
EC50 [2]: 0.54 µg/mL | EC50 [3]: 0.09 µg/mL | EC50 [4]: 1.1 µg/mL | EC50 [5]: 0.08 µg/mL | EC50 [6]: 0.5 µg/mL | EC50 [7]: 1.09 µg/mL
